Data as given in patent publication US20100144838A1, “Methods for Identifying Modulators of Pyrimidine Tract Binding Protein” (priority 2008, published 2010).

Legend:
PTB = experiment: Gene expression profiling, Affymetrix HG-U133 plus 2 oligonucleotide arrays; format: cell-based; conditions: A2780/PTBsi3 cells treated with DOX
Description: Microarray analyses of genome-wide splicing patterns and gene expression profiling were performed in A2780/PTBsi3 cells with or without PTB knockdown. Gene expression profiling was assessed using Affymetrix HG-U133 plus 2 oligonucleotide arrays, and the splicing pattern was assessed by Jivan Biologics' splicing-sensitive microarrays. The former analysis was done three times and the latter was done twice with total RNAs isolated from separate experiments. We also examined the gene expression profile once in the control subline, A2780/LUCsi, grown with or without DOX.
However, in A2780/PTBsi3 cells treated with DOX (i.e. PTB knockdown), 52 genes were found consistently changed more than 2-fold in all three separate experiments. […] In total, we found 50 genes whose expression was regulated by PTB. […] We have validated these changes in a few of these genes (INHBE, CDC42, PTBP2 and PKP4) by real-time PCR or conventional RT-PCR.

A2780 sublines = experiment: Tumor growth in xenograft mouse model; format: in vivo, Athymic nu/nu mice; conditions: subcutaneous A2780 sublines; DOX 2 mg/ml in drinking water from inoculation or 12 days after; FIG. 3
From the text: siRNA technology was .used to knock down the expression of PTB in tumor cells and to examine the effects of such manipulations on cell growth and malignant properties. Three siRNA (PTBsi1, PTBsi2, and PTBsi3) sequences targeting different regions of PTB mRNA were used. A siRNA can be generated as described in PCT/US2007/007352, which is herein fully incorporated by reference. Each of PTBsi1, PTBsi2, and PTBsi3 may be generated in a cell from a shRNA, which is formed after transcription of its coding sequence. The annealing of two oligonucleotides generates a DNA fragment with protruding ends compatible with Hind III and Bgl II restriction enzyme sites respectively. The coding sequences for each siRNA were cloned individually into a lentiviral vector downstream of H1 promoter and tetO element and thus the expression of these siRNAs is under control of doxycycline (DOX) (i.e. induced by DOX). We established several stable sublines carrying these expression cassettes. […] We have also examined whether knockdown of PTB could influence ovarian tumor cell growth in xenograft mouse model. […] Invasive cells were counted under microscope with high magnification (150×). […] Tumor sizes were measured in long and short dimensions every three or four days. Tumor size was calculated with formula axb2/2, where a=long dimension and b=short dimension. […]

Molecule	PTB downregulation (PTB; all three experiments)	genes consistently changed more than 2-fold (PTB; three separate experiments, signal intensity cutoff 200) [genes]	tumor growth (A2780 sublines)
PTBsi3: siRNA targeting PTB mRNA, DOX-induced, generated in a cell from shRNA3 (SEQ ID NO: 5 and 6) (nucleic acid) chain 1: GATCCCTGACAAGAGCCGTGACTACTTCAAGAGAGTAGTCACGGCTCTTGTCATTTTTGGAAA chain 2: AGCTTTTCCAAAAATGACAAGAGCCGTGACTACTCTCTTGAAGTAGTCACGGCTCTTGTCAGGG	about 4 fold	52	grew slower
PTBsi1: siRNA targeting PTB mRNA, DOX-induced, generated in a cell from shRNA1 (SEQ ID NO: 1 and 2) (nucleic acid) chain 1: GATCCCCAGGTGACAGCCGAAGTGCATTCAAGAGATGCACTTCGGCTGTCACCTTTTTTGGAAA chain 2: AGCTTTTCCAAAAATGCACTTCGGCTGTCACCTTCTCTTGAAAGGTGACAGCCGAAGTGCAGGG	–	–	grew slower
